Data: publication PMC4227786

How the values were obtained:
14-3-3θ = 14-3-3θ (UniProt P27348); assay: co-immunoprecipitation; settings: reference: wild type hnRNPA1; sites S4,S6
14-3-3σ = 14-3-3σ (UniProt P31947); assay: co-immunoprecipitation; settings: reference: wild type hnRNPA1; sites S4,S6

- binding against the reference (14-3-3θ): lost
- binding against the reference (14-3-3σ): lost
Substance: hnRNPA1 (from UniProt P09651) S4AS6A
